Eight substances from the supplement of paper PMC5998384 can be followed below.

Data set [1] relates to HeLa Kyoto. The data set can be described thus: solubility in G1/S (NP-40 vs SDS abundance) (log2 ratio); higher = more soluble. The conditions noted are these: cell cycle stage: G1/S.
Data set [2] has as its system HeLa Kyoto. The data set can be described thus: melting temperature (median over replicates), in situ; higher = more thermally stable.
The test system of data set [3] is HeLa Kyoto. Description: solubility change mitosis vs G1/S (difference of NP-40 vs SDS log2 ratios) (log2 ratio difference); higher = more soluble in mitosis.
Data set [4] relates to HeLa Kyoto. The data set can be described thus: thermal stability score vs G1/S (z-score of summed log2 fold changes over temperatures); higher = more thermally stable than in G1/S.
Setting [5] is: cell cycle stage: early G1 (4.5 h after nocodazole release).
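For melting temperature (median over replicates), in situ in this document: HeLa Kyoto cells synchronized by double thymidine or nocodazole block, proteins quantified by TMT10plex mass spectrometry, three independent biological replicates.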
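For solubility change mitosis vs G1/S (difference of NP-40 vs SDS log2 ratios) in this document: synchronized HeLa Kyoto cells (double thymidine block for G1/S, nocodazole release for mitosis), protein amounts in NP-40 versus SDS lysates quantified by mass spectrometry, three biological replicates.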
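For solubility in G1/S (NP-40 vs SDS abundance) in this document: HeLa Kyoto cells arrested at G1/S by double thymidine block, proteins quantified by TMT10plex mass spectrometry in mild NP-40 versus SDS extracts, three biological replicates.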
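For thermal stability score vs G1/S (z-score of summed log2 fold changes over temperatures) in this document: synchronized HeLa Kyoto cells, proteins quantified by TMT10plex mass spectrometry, three biological replicates, mitosis taken 0.5 h after nocodazole release, G1/S directly after double thymidine block.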

AKAP8, sequence (chain, as listed by the source): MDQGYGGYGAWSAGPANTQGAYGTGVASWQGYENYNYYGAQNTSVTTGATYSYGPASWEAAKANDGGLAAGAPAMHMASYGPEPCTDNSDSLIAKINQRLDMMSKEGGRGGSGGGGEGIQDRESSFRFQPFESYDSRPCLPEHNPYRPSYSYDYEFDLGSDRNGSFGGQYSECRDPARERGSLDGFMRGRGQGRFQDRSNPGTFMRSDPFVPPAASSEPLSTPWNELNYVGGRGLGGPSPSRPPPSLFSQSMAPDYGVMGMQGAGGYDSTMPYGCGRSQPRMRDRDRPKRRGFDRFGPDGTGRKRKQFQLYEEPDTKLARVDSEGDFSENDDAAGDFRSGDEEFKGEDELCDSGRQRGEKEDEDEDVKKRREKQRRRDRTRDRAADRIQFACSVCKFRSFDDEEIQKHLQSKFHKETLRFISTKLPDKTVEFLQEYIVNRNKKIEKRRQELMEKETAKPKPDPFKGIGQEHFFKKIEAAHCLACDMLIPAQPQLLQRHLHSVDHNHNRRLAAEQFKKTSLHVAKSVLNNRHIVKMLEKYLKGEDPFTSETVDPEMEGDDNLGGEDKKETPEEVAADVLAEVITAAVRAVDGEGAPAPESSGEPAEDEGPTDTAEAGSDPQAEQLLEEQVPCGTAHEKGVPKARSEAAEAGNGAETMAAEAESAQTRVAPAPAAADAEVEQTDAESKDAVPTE

As to “MWKLLPAAGPAGGEPYRLLTGVEYVVGRKNCAILIENDQSISRNHAVLTANFSVTNLSQTDEIPVLTLKDNSKYGTFVNEEKMQNGFSRTLKSGDGITFGVFGSKFRIEYEPLVACSSCLDVSGKTALNQAILQLGGFTVNNWTEECTHLVMVSVKVTIKTICALICGRPIVKPEYFTEFLKAVESKKQPPQIESFYPPLDEPSIGSKNVDLSGRQERKQIFKGKTFIFLNAKQHKKLSSAVVFGGGEARLITEENEEEHNFFLAPGTCVVDTGITNSQTLIPDCQKKWIQSIMDMLQRQGLRPIPEAEIGLAVIFMTTKNYCDPQGHPSTGLKTTTPGPSLSQGVSVDEKLMPSAPVNTTTYVADTESEQADTWDLSERPKEIKVSKMEQKFRMLSQDAPTVKESCKTSSNNNSMVSNTLAKMRIPNYQLSPTKLPSINKSKDRASQQQQTNSIRNYFQPSTKKRERDEENQEMSSCKSARIETSCSLLEQTQPATPSLWKNKEQHLSENEPVDTNSDNNLFTDTDLKSIVKNSASKSHAAEKLRSNKKREMDDVAIEDEVLEQLFKDTKPELEIDVKVQKQEEDVNVRKRPRMDIETNDTFSDEAVPESSKISQENEIGKKRELKEDSLWSAKEISNNDKLQDDSEMLPKKLLLTEFRSLVIKNSTSRNPSGINDDYGQLKNFKKFKKVTYPGAGKLPHIIGGSDLIAHHARKNTELEEWLRQEMEVQNQHAKEESLADDLFRYNPYLKRRR [NBN]”, the “solubility in G1/S (log2)” value in the data set on HeLa Kyoto [1] is -0.0211. Further, the melting temperature with HeLa Kyoto [2] (cell cycle stage: G1/S) came out at 48.7 °C; with HeLa Kyoto [2] (cell cycle stage: mitosis) it was 49.7 °C. For the same substance, in the data set on HeLa Kyoto [3], the “solubility change mitosis (log2)” value is -0.152. Besides, the thermal stability score in the data set on HeLa Kyoto [4] (setting [5]) stood at 0.727; in the data set on HeLa Kyoto [4] (cell cycle stage: mitosis), 1.8.

With “MSLEQRSLHCKPEEALEAQQEALGLVCVQAATSSSSPLVLGTLEEVPTAGSTDPPQSPQGASAFPTTINFTRQRQPSEGSSSREEEGPSTSCILESLFRAVITKKVADLVGFLLLKYRAREPVTKAEMLESVIKNYKHCFPEIFGKASESLQLVFGIDVKEADPTGHSYVLVTCLGLSYDGLLGDNQIMPKTGFLIIVLVMIAMEGGHAPEEEIWEELSVMEVYDGREHSAYGEPRKLLTQDLVQEKYLEYRQVPDSDPARYEFLWGPRALAETSYVKVLEYVIKVSARVRFFFPSLREAALREEEEGV [MAGEA1]”, the “solubility in G1/S (log2)” value with HeLa Kyoto [1] was -0.178. For the same substance, the melting temperature is 48.4 °C with HeLa Kyoto [2] (cell cycle stage: G1/S) and 49.5 °C with HeLa Kyoto [2] (cell cycle stage: mitosis). In addition, the “solubility change mitosis (log2)” value with HeLa Kyoto [3] is -0.0297. Besides, the thermal stability score in the data set with HeLa Kyoto [4] (setting [5]) stood at 0.313; in the data set with HeLa Kyoto [4] (cell cycle stage: mitosis) it was 2.38.

Regarding “MHVIKRDGRQERVMFDKITSRIQKLCYGLNMDFVDPAQITMKVIQGLYSGVTTVELDTLAAETAATLTTKHPDYAILAARIAVSNLHKETKKVFSDVMEDLYNYINPHNGKHSPMVAKSTLDIVLANKDRLNSAIIYDRDFSYNYFGFKTLERSYLLKINGKVAERPQHMLMRVSVGIHKEDIDAAIETYNLLSERWFTHASPTLFNAGTNRPQLSSCFLLSMKDDSIEGIYDTLKQCALISKSAGGIGVAVSCIRATGSYIAGTNGNSNGLVPMLRVYNNTARYVDQGGNKRPGAFAIYLEPWHLDIFEFLDLKKNTGKEEQRARDLFFALWIPDLFMKRVETNQDWSLMCPNECPGLDEVWGEEFEKLYASYEKQGRVRKVVKAQQLWYAIIESQTETGTPYMLYKDSCNRKSNQQNLGTIKCSNLCTEIVEYTSKDEVAVCNLASLALNMYVTSEHTYDFKKLAEVTKVVVRNLNKIIDINYYPVPEACLSNKRHRPIGIGVQGLADAFILMRYPFESAEAQLLNKQIFETIYYGALEASCDLAKEQGPYETYEGSPVSKGILQYDMWNVTPTDLWDWKVLKEKIAKYGIRNSLLIAPMPTASTAQILGNNESIEPYTSNIYTRRVLSGEFQIVNPHLLKDLTERGLWHEEMKNQIIACNGSIQSIPEIPDDLKQLYKTVWEISQKTVLKMAAERGAFIDQSQSLNIHIAEPNYGKLTSMHFYGWKQGLKTGMYYLRTRPAANPIQFTLNKEKLKDKEKVSKEEEEKERNTAAMVCSLENRDECLMCGS [RRM1]”, in the data set with HeLa Kyoto [1], the “solubility in G1/S (log2)” value was -0.148. Besides, the melting temperature was 56.1 °C with HeLa Kyoto [2] (cell cycle stage: G1/S) and 53.8 °C in the data set with HeLa Kyoto [2] (cell cycle stage: mitosis). Further, the “solubility change mitosis (log2)” value in the data set with HeLa Kyoto [3] is -0.154. Besides, the thermal stability score is -8.92 in the data set with HeLa Kyoto [4] (setting [5]) and -8.47 in the data set on HeLa Kyoto [4] (cell cycle stage: mitosis).

As to “MPMFIVNTNVPRASVPDGFLSELTQQLAQATGKPPQYIAVHVVPDQLMAFGGSSEPCALCSLHSIGKIGGAQNRSYSKLLCGLLAERLRISPDRVYINYYDMNAANVGWNNSTFA [MIF]”, in the data set with HeLa Kyoto [1], the “solubility in G1/S (log2)” value was 0.405. Further, the melting temperature in the data set with HeLa Kyoto [2] (cell cycle stage: G1/S) came out at 53.5 °C; in the data set on HeLa Kyoto [2] (cell cycle stage: mitosis) it was 52.5 °C. Besides, the “solubility change mitosis (log2)” value with HeLa Kyoto [3] is -0.0337. In addition, the thermal stability score in the data set on HeLa Kyoto [4] (setting [5]) is -7.37; in the data set on HeLa Kyoto [4] (cell cycle stage: mitosis), -7.71.

For the substance “MEAVLTEELDEEEQLLRRHRKEKKELQAKIQGMKNAVPKNDKKRRKQLTEDVAKLEKEMEQKHREELEQLKLTTKENKIDSVAVNISNLVLENQPPRISKAQKRREKKAALEKEREERIAEAEIENLTGARHMESEKLAQILAARQLEIKQIPSDGHCMYKAIEDQLKEKDCALTVVALRSQTAEYMQSHVEDFLPFLTNPNTGDMYTPEEFQKYCEDIVNTAAWGGQLELRALSHILQTPIEIIQADSPPIIVGEEYSKKPLILVYMRHAYGLGEHYNSVTRLVNIVTENCS [OTUD6B]”, the “solubility in G1/S (log2)” value with HeLa Kyoto [1] worked out at 0.512. Moreover, the melting temperature in the data set with HeLa Kyoto [2] (cell cycle stage: G1/S) was determined as 49.9 °C; in the data set with HeLa Kyoto [2] (cell cycle stage: mitosis), 50 °C. Further, in the data set on HeLa Kyoto [3], the “solubility change mitosis (log2)” value was -0.0729. In addition, the thermal stability score with HeLa Kyoto [4] (setting [5]) turned out to be 0.405; in the data set on HeLa Kyoto [4] (cell cycle stage: mitosis) it was 0.425.

For the substance AKAP8, the “solubility in G1/S (log2)” value with HeLa Kyoto [1] was -0.14. Besides, the figures for the melting temperature with HeLa Kyoto [2] (cell cycle stage: G1/S) and in the data set with HeLa Kyoto [2] (cell cycle stage: mitosis) were 49 °C and 49.8 °C, respectively. The “solubility change mitosis (log2)” value in the data set with HeLa Kyoto [3] turned out to be 0.113. For the same substance, the thermal stability score in the data set on HeLa Kyoto [4] (setting [5]) stood at 1.87; in the data set with HeLa Kyoto [4] (cell cycle stage: mitosis), 2.22.

Consider SVEP1, for which the “solubility in G1/S (log2)” value in the data set with HeLa Kyoto [1] is -0.163. Moreover, the results for the melting temperature in the data set on HeLa Kyoto [2] (cell cycle stage: G1/S) and in the data set on HeLa Kyoto [2] (cell cycle stage: mitosis) were 54.1 °C and 55.1 °C, respectively. Further, in the data set on HeLa Kyoto [3], the “solubility change mitosis (log2)” value was -0.0333. Further, the thermal stability score in the data set with HeLa Kyoto [4] (setting [5]) turned out to be 1.39; in the data set on HeLa Kyoto [4] (cell cycle stage: mitosis), 1.6.

As to “MPLLGLLPRRAWASLLSQLLRPPCASCTGAVRCQSQVAEAVLTSQLKAHQEKPNFIIKTPKGTRDLSPQHMVVREKILDLVISCFKRHGAKGMDTPAFELKETLTEKYGEDSGLMYDLKDQGGELLSLRYDLTVPFARYLAMNKVKKMKRYHVGKVWRRESPTIVQGRYREFCQCDFDIAGQFDPMIPDAECLKIMCEILSGLQLGDFLIKVNDRRIVDGMFAVCGVPESKFRAICSSIDKLDKMAWKDVRHEMVVKKGLAPEVADRIGDYVQCHGGVSLVEQMFQDPRLSQNKQALEGLGDLKLLFEYLTLFGIADKISFDLSLARGLDYYTGVIYEAVLLQTPTQAGEEPLNVGSVAAGGRYDGLVGMFDPKGHKVPCVGLSIGVERIFYIVEQRMKTKGEKVRTTETQVFVATPQKNFLQERLKLIAELWDSGIKAEMLYKNNPKLLTQLHYCESTGIPLVVIIGEQELKEGVIKIRSVASREEVAIKRENFVAEIQKRLSES [HARS2]”, the “solubility in G1/S (log2)” value in the data set on HeLa Kyoto [1] amounted to 0.0324. Moreover, the values for the melting temperature with HeLa Kyoto [2] (cell cycle stage: G1/S) and in the data set with HeLa Kyoto [2] (cell cycle stage: mitosis) were 53.6 °C and 53.3 °C, respectively. For the same substance, the “solubility change mitosis (log2)” value with HeLa Kyoto [3] was -0.0551. Further, the thermal stability score with HeLa Kyoto [4] (setting [5]) is 2.43; in the data set on HeLa Kyoto [4] (cell cycle stage: mitosis), 1.63.
